According to publication PMC5647421, “Hetero-oligomer of dynamin-related proteins participates in the fission of highly divergent mitochondria from Entamoeba histolytica” (Scientific Reports, 2017):
Where “and” joins values, the source holds several entries; their conditions need not be identical. Equal entries are not always repeated.

Molecular target: T1, EhDrpA (endogenous) (Entamoeba histolytica (endogenous in …, UniProt C4LX84 1-682))
T1 construct: Entamoeba histolytica dynamin-related protein A (EhDrpA, earlier named EhDlp1), XP_649650; also called endogenous EhDrpA; native EhDrpA; source: endogenous, E. histolytica trophozoite whole cell lysate
T1 sequence (looked up): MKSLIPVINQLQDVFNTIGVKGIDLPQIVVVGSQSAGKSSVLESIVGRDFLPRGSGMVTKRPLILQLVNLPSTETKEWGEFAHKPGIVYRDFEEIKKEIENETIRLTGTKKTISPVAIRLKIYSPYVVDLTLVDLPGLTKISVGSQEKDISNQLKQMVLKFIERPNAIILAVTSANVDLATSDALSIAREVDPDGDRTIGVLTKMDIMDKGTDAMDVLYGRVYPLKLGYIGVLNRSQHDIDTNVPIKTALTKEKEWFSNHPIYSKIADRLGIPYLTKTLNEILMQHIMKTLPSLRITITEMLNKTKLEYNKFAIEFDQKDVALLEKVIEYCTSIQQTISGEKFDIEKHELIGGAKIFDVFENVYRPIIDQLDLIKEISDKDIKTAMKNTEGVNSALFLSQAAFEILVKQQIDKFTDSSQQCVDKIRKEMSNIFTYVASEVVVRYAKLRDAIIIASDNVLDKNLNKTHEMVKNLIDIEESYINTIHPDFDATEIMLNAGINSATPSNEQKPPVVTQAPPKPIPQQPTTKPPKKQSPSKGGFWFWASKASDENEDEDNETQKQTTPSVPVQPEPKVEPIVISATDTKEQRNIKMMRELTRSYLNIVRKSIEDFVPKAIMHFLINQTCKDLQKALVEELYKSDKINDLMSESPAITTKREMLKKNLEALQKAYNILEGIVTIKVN
Assay: co-IP; trophozoites of E. histolytica HM-1:IMSS cl6 wild type; immunoprecipitation by anti-DrpA or anti-DrpB antibodies; quantitative immunoblot with recombinant His6-EhDRP-HA proteins as standards
Conditions: partners not purified

B1: EhDrpB (endogenous) (natural protein, UniProt C4M3R5 1-663, looked up)
chain: MQRLIPVINSLQDVFTAAGLPNTLPLPQIVVVGSQSSGKSSVLEHVVGKDFLPRGSGIVTRRPLIVQCVRSNVAEDYGQFEHTGDRKFTDFGEIRNEITRETERTCPGRNVSSVPIRLRIYSSSVVDLTLVDLPGLVKVNINGQTAEMVKNLRDMVYEYASPSNALILAVTAGNIDIANSDALQVAKDVDPDGERTIGVLTKLDLEDKGTNSMDVLMGRVYPLKLGYIGVVNRSQQDINNGVDVKTSLRHEKEFFENHPVYCSIAERMGTEYMVNRLNVLLLQHIQKCLPGLKQQINQCYEKARSRYEDIKPDDENLLSLSLQQIMKFSGSFAAALNGTDTNIHTHEISGGAKIFSVFENNFRPTIDSQDILSGIKDVDILTAIKNASGTRPCLYVPQSAFENLISKQVRNFEGTCHNCVDNVYREMKVIVGKIAKDNIEKYDRFREALIQASTEVMNDYMTQTHKMVQDLIDIEADYINTSHPDFDTTKVLKEADEAMKTPQDGIDTIVTIDPNNTTNAQQYEAKKPVKSSFFAGQINKNQAKPQQQHVPKESITTSIRVDHTNQREMREINLIRNLCKDYLLIVRKSIKDLVPKAVIHFLVFKTRDSLQKELIKKLYNEALLQDLLAENPAIVNERKVVKQNLEALKKALDIINQVRDQCF
notes: Entamoeba histolytica dynamin-related protein B (EhDrpB), XP_651634; also called endogenous EhDrpB; native EhDrpB; source: endogenous, E. histolytica trophozoite whole cell lysate
stoichiometry N: 2 EhDrpB per EhDrpA and 3 EhDrpB per EhDrpA
